Test results published in US20230025129A1 (KYMAB, published 2023).
Positions count from the first letter of the chain named.

T1: mouse matriptase-2 ECD protein his tag (mouse, UniProt Q9DBI0 80-811)
T1 sequence: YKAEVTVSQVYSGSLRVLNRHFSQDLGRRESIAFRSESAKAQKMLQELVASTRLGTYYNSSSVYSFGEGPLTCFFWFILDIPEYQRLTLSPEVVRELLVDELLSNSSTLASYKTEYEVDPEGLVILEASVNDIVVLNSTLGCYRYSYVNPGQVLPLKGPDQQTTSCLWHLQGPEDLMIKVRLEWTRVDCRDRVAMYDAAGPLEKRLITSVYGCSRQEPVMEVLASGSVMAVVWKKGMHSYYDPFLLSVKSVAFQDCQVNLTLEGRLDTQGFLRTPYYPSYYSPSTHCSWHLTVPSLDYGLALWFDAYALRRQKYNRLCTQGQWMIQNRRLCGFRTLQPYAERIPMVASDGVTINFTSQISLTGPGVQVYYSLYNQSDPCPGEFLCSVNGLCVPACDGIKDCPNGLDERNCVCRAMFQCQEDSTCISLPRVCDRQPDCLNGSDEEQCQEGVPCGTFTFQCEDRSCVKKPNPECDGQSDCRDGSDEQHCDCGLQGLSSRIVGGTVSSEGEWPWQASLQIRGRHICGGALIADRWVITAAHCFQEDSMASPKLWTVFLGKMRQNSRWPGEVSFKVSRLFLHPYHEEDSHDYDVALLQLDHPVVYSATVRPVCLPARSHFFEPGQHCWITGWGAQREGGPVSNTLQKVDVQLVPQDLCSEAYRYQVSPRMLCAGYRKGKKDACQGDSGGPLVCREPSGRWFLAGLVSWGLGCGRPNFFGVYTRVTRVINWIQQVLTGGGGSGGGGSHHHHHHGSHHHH

T2: human MTP-2 expressed on HEK293 cells (human, UniProt Q8IU80 1-811)
T2 sequence: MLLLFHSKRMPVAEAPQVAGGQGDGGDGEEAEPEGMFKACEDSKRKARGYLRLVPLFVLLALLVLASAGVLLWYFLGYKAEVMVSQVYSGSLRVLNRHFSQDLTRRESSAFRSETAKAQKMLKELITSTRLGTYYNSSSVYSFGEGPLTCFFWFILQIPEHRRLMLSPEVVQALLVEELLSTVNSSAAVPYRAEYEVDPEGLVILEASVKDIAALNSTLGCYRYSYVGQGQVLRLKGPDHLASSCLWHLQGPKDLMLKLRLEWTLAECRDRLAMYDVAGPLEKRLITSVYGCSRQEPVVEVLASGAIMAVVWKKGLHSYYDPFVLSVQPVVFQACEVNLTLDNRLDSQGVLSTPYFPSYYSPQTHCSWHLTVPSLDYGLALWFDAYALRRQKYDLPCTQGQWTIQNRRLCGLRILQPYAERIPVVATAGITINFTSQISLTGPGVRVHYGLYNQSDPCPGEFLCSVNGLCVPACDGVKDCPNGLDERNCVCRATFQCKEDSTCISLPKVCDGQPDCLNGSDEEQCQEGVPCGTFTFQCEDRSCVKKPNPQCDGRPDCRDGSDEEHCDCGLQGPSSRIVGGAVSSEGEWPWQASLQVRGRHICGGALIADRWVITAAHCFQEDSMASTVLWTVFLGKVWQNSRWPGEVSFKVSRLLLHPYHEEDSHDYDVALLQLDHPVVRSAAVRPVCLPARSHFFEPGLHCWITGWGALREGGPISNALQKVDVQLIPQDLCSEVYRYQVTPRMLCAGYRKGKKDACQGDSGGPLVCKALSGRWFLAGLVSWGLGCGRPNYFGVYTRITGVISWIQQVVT

T3: human matriptase-2 ECD protein his tag (human, UniProt Q8IU80 78-811)
T3 sequence: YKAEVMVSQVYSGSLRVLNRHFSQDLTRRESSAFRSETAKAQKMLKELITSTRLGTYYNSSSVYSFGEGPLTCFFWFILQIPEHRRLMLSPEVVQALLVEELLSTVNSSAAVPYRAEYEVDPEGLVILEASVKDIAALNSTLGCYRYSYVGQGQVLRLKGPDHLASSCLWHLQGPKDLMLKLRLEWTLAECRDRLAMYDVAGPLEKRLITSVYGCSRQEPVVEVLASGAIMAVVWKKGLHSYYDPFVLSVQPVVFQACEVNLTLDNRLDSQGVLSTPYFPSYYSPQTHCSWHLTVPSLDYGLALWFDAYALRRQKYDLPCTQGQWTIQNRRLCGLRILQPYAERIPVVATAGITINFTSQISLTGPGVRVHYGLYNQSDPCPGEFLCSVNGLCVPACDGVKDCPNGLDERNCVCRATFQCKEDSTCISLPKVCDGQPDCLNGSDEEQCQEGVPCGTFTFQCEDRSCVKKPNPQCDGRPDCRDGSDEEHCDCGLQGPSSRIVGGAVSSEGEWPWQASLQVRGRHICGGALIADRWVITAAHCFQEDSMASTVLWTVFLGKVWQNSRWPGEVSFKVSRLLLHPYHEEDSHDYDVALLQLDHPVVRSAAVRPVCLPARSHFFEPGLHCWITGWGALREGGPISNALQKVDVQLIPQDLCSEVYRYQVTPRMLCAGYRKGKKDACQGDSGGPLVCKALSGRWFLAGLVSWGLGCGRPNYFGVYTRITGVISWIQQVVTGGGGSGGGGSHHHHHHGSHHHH

B1: NORI-026 (antibody, human IgG4 S228P, kappa, V domains shown)
VH: QVQLVESGGGVVQPGRSLRLSCAASGFTFSYFGMHWVRQAPGKGLEWVADISYDGSDENYADSVKGRFTISRDNSKNTLSLQMNSLRAEDTAVYYCAKETYQSLMYLEYWGQGILVTVSS
VL: AIQMTQSPSSLSASVGDRVTITCRASQDIRNDLGWYQQKPGKAPKLLIYTAPSLQSGVPSRFSGSGSGTDFTLTIGSLQPEDFATYYCLQDYNYPWTFGQGTKVEIKR
B2: NORI-032 (antibody, human IgG4 S228P, lambda, V domains shown)
VH: QVQLVQSGAEVRKPGAAVKVSCKASGYTFSSFGITWIRQAPGQGLEWMGWISAYNGISNSAQKVQGRVTMTTDTSTSTAYMELRSLRSDDSAVYYCARDRANRDALDVWGQGTKVTVSL
VL: SHELTQPPSMSVSPGQTASITCSGDELGDRYACWYQQKPGQSPVLVIYQDTKRPSGIPERFSGSISGNTATLTISGTQAMDEADYYCQAWDSSTVVFGGGTKLTVLG
B3: NORI-028 (antibody, human IgG4 S228P, lambda, V domains shown)
VH: EVQLVESGGAVVRPGGSLRLSCAISGFILDDYGMNWVRQGPGKGLEWVAGISWNGDSTRYADSVKGRFTISRDNAQNSLYLQMNSLRAEDTALYFCAREYSGDFYYYYYGMDVWGQGTTVTVSS
VL: QSALTQPPSASGSPGQSVTISCTGTSSDVGFYNFVSWYQHHPGKAPKLMIYEVSKRPSGVPDRFSGSKSANTASLTVSGLQAEDEADYYCSSYAGSNNLVFGGGTKLTVLG
B4: NORI-029 (antibody, human IgG4 S228P, lambda, V domains shown)
VH: EVQLVESGGGLVKPGRSLRLSCTASGFTFGDYVMSWFRQAPGKGLEWVGFIRSKPYSETTEYAASVRGRFTISRDDSKSIAYLQMNSLKTEDTAVYYCTRALYDLLTGPWMGGDYFYALDVWGQGTTVTVSS
VL: B3 VL with F31D, F34Y, H40Q, A70G, S91K
B5: NORI-022 (antibody, human IgG4 S228P, lambda, V domains shown)
VH: EVRLVESGGGLVQSGGSLRLSCAASGFTFSTYTMNWVRQAPGKGLEWVSYISIRNSIIDYADSVKGRFTISRDNAKNSLYLQMNSLRDEDTAVYYCAREEFCGTTSCYFLDYWGQGILVTVSS
VL: QSVLTQPPSVSGAPGQRVTISCTGSSSNIGAGYDVHWYQQLPGTAPKLLIYGNSNRPSGVPDRFSGSKSGTSASLAITGLQAEDEADYYCQSYDSSLSGYVFGTGTKVTVLG
B6: NORI-025 (antibody, human IgG4 S228P, lambda, V domains shown)
VH: QVQLVESGGGVVQPGRSLRLSCTASGVTFTNFDMHWVRQTPGKGLEWVAVIWYDESYSYYADSVQGRFTISRDNSKNSLYLQMNSLRADDTAVYYCARGWTGSYVFDYWGQGTLVTVSS
VL: QSVLTQPPSVSEAPRQRVTISCSGSSSNIGNNAVNWYQQLPGKAPKLLISYDDLLPSGVSDRFSGSKSGTSASLAISGLQSADEADYYCAAWDDSLNAVVFGGGTKLTVLG
B7: NORI-030 (antibody, human IgG4 S228P, lambda, V domains shown)
VH: QVQLVESGGGVVQPGRSLRLSCAASGFTFSNFDMDWVRQAPGRGLEWVALISYDGSKKYYADSVKGRFTISRDNSKNTLYLQMNSLRGEDTAVYFCAKEGYGGYDGFDYWGQGTLVTVSS
VL: B6 VL with S26T, D53Y, L54V, L55V, P56S, A90S, A91T, S95G, A98G
B8: NORI-031 (antibody, human IgG4 S228P, lambda, V domains shown)
VH: QLQLQESGPGLVKPSETLSLTCTVSGGAISSSNYFWGWIRQSPGKGLEWIGSMYYTGITYYNPSLKSRVTISVDTSKNQLSLKVNSVTAADTAVYYCARQDGFRTGWFDPWGQGTLVTVSS
VL: SYELTQPPSVSVSPGQTATLTCSGDKLGDNYVCWFQQKPGQSPLLVMYQDTKRPSGIPERFSGSNSGNTATLTISGTQALDEADYYCQAWDSRTVVFGGGTKLTVLG
B9: NORI-023 (antibody, human IgG4 S228P, lambda, V domains shown)
VH: QVQLVESGGGLVKPGGSLRLSCAASGFTFSDYYMSWIRQAPGKGLEWVSYISSSGGNRYYADSVKGRFTISRDNAKNSLYLQMNSLRAEDTAVYYCARGGLRYFDWADFWGQGTLVTVSS
VL: QSVLTQPPSVSAAPGQKVTISCSGSSSNIGNNYVSWYQQLPGTAPKLLIYDNNKRPSGIPDRFSGSKSGTSATLGIPELQTGDEADYYCGTWDNSLSAGVFGGGTKLTVLG
B10: NORI-024 (antibody, human IgG4 S228P, lambda, V domains shown)
VH: QVQLVQSGPELKKPGASVKVSCKASGYTFTNFGISWVRQAPGQGLEWMGWISAYSGFTNFAQKFQGRVSMTTDTSTSTVYMELKSLRSDDTAVYYCAREGYSNYEDWFDPWGQGTLVTVSS
VL: SYELTQPPSVSVSPGQTARITCSGDALPKKYAYWYQQKSGQAPVLVIYEDSKRPSGIPERISGSNSGTMATLTISGAQVEDEADYYCYSTDSSGNHRVFGGGTKLTVLG
B11: NORI-027 (antibody, human IgG4 S228P, lambda, V domains shown)
VH: B10 VH with P9A, T30N, F32Y, F57Y, F60I, S69T, S77N, K84G, Y104F
VL: B10 VL with A26E

target: T1, mouse matriptase-2 ECD protein his tag; experiment: cell-based or functional assay

Binder	Inhibition enzymatic activity mouse MTP2 protein (IC50) [nM]
B1	6.22
B2	0.716
B3	8.96
B4	9.35
B5	2.98
B6	6.21
B7	6.66
B8	27
B9	2.92
B10	6.8
B11	40.8

target: T2, human MTP-2 expressed on HEK293 cells; experiment: cell-based or functional assay

Binder	Inhibition enzymatic activity human MTP2 on cells (IC50) [nM]
B1	0.817
B2	1.66
B3	3.85
B4	0.243
B5	0.765
B6	1.88
B7	0.227
B8	3.51
B9	13.2
B10	8.04
B11	16.9

target: T3, human matriptase-2 ECD protein his tag; experiment: cell-based or functional assay

Binder	Inhibition enzymatic activity human MTP2 protein (IC50) [nM]
B1	5.11
B2	1.6
B3	11.8
B4	2
B5	4.36
B6	3.27
B7	1.88
B8	10.3
B9	5.45
B10	10.5
B11	24.9
